Experiments:
Palivizumab [1] = experiment: ELISA; competitive: Palivizumab coated, HRP-conjugated anti-idiotypic IgG (AbD23967/HCA262P, 0.2 μg/ml; 1 nM in the legend) co-incubated with 0.1-100 nM soluble AIP1-4^VHH, 1% BSA in PBS, room temperature
Palivizumab [2] = experiment: SPR; Palivizumab (about 1000 RU) or P^scFvFc variants (about 500 RU) captured on a Protein A chip, AIP^VHH as analyte; Biacore X100, 25 °C, PBS pH 7.4 with 0.05% P20, 30 μl/min, 120 s injection, 500 s dissociation, 1:1 binding model
[3] = molecular target: Palivizumab single-chain variable fragment, light-heavy order, fused to IgG1 Fc (P^scFvLHFc)
[4] = molecular target: anti-idiotypic nanobody for Palivizumab 3 (AIP3^VHH), soluble
[5] = molecular target: anti-idiotypic nanobody for Palivizumab 1 (AIP1^VHH), soluble
[6] = molecular target: anti-idiotypic nanobody for Palivizumab 2 (AIP2^VHH), soluble
[7] = molecular target: anti-idiotypic nanobody for Palivizumab 1 (AIP1^VHH), soluble; remark: listed apart in the source
[8] = molecular target: anti-idiotypic nanobody for Palivizumab 3 (AIP3^VHH), soluble; remark: listed apart in the source
[9] = molecular target: anti-idiotypic nanobody for Palivizumab 1 (AIP1^VHH), soluble; remark: listed apart in the source
[10] = molecular target: anti-idiotypic nanobody for Palivizumab 2 (AIP2^VHH), soluble; remark: listed apart in the source
[11] = molecular target: anti-idiotypic nanobody for Palivizumab 3 (AIP3^VHH), soluble; remark: listed apart in the source
[12] = molecular target: Palivizumab single-chain variable fragment, light-heavy order, fused to IgG1 Fc (P^scFvLHFc); experiment: SPR; Palivizumab (about 1000 RU) or P^scFvFc variants (about 500 RU) captured on a Protein A chip, AIP^VHH as analyte; Biacore X100, 25 °C, PBS pH 7.4 with 0.05% P20, 30 μl/min, 120 s injection, 500 s dissociation, 1:1 binding model
[13] = molecular target: Palivizumab single-chain variable fragment, heavy-light order, fused to IgG1 Fc (P^scFvHLFc); experiment: as above

B1: anti-idiotypic nanobody for Palivizumab 3 (AIP3^VHH), soluble (VHH)
VHH: DVQLQESGGGLVQPGGSLRLSCVASGRTWSIYAMGWFRQAPGKEREFVTAISISRSESVTHYAESVTGRFTISRDNAKNTLHLQMNSLKPEDTAVYFCAADRRSIDPHHTIDYWGQGTQVTVSS
Question: How did the IC50 (Palivizumab [1]) turn out when B1 was run?
Answer: The IC50 was 48.5 nM.

Question: What about the Kd (Palivizumab [2]) of the same binder?
Answer: The Kd was 1.11 nM.

Question: What about the IC50 of soluble AIP3^VHH (0.49-1000 nM) for proliferation of Ba/F3-gp130-AIP1^VHHgp130 cells induced by 2 nM P^scFvLHFc; blocks P^scFvLHFc with AIP1^VHHgp130 [3] of the same binder?
Answer: The IC50 of soluble AIP3^VHH (0.49-1000 nM) for proliferation of Ba/F3-gp130-AIP1^VHHgp130 cells induced by 2 nM P^scFvLHFc; blocks P^scFvLHFc with AIP1^VHHgp130 was 364 nM.

B2: Palivizumab (antibody, V domains shown)
VH: QVTLRESGPALVKPTQTLTLTCTFSGFSLSTSGMSVGWIRQPPGKALEWLADIWWDDKKDYNPSLKSRLTISKDTSKNQVVLKVTNMDPADTATYYCARSMITNWYFDVWGAGTTVTVSS
VL: DIQMTQSPSTLSASVGDRVTITCKCQLSVGYMHWYQQKPGKAPKLLIYDTSKLASGVPSRFSGSGSGTEFTLTISSLQPDDFATYYCFQGSGYPFTFGGGTKLEIK
Question: For B2, which EC50 of proliferation of Ba/F3-gp130-AIP3^VHHgp130 cells, Palivizumab cross-linked with a 6-fold molar excess of hFc-mAb [4] is on record?
Answer: Its EC50 of proliferation of Ba/F3-gp130-AIP3^VHHgp130 cells, Palivizumab cross-linked with a 6-fold molar excess of hFc-mAb is 2.71 nM.

Question: And the proliferation of Ba/F3-gp130 cells expressing AIP3^VHHgp130, Palivizumab 0.033-66 nM, percent of the maximal proliferation with HIL-6 [4]?
Answer: The proliferation of Ba/F3-gp130 cells expressing AIP3^VHHgp130, Palivizumab 0.033-66 nM, percent of the maximal proliferation with HIL-6 was 20%.

Question: What about the EC50 of proliferation of Ba/F3-gp130-AIP1^VHHgp130 cells, Palivizumab cross-linked with a 6-fold molar excess of hFc-mAb [5] of the same binder?
Answer: Its EC50 of proliferation of Ba/F3-gp130-AIP1^VHHgp130 cells, Palivizumab cross-linked with a 6-fold molar excess of hFc-mAb is 215 nM.

Question: And the EC50 of proliferation of Ba/F3-gp130-AIP2^VHHgp130 cells, Palivizumab cross-linked with a 6-fold molar excess of hFc-mAb [6]?
Answer: Its EC50 of proliferation of Ba/F3-gp130-AIP2^VHHgp130 cells, Palivizumab cross-linked with a 6-fold molar excess of hFc-mAb is 48.8 nM.

Question: What about the IC50 of Palivizumab (0.49-1000 nM) for proliferation of Ba/F3-gp130-AIP1^VHHgp130 cells induced by 2 nM P^scFvLHFc; blocks P^scFvLHFc with AIP1^VHHgp130 [7] of the same binder?
Answer: Its IC50 of Palivizumab (0.49-1000 nM) for proliferation of Ba/F3-gp130-AIP1^VHHgp130 cells induced by 2 nM P^scFvLHFc; blocks P^scFvLHFc with AIP1^VHHgp130 is 8.28 nM.

Question: What about the molar excess of Palivizumab over P^scFvLHFc (2 nM) for complete suppression of STAT3 phosphorylation in Ba/F3-gp130-AIP1^VHHgp130 cells (fold molar excess) [7] of the same binder?
Answer: Its molar excess of Palivizumab over P^scFvLHFc (2 nM) for complete suppression of STAT3 phosphorylation in Ba/F3-gp130-AIP1^VHHgp130 cells (fold molar excess) is greater than 8.

B3: Palivizumab single-chain variable fragment, heavy-light order, fused to IgG1 Fc (P^scFvHLFc) (Fc fusion)
VH: QVTLRESGPALVKPTQTLTLTCTFSGFSLSTSGMSVGWIRQPPGKALEWLADIWWDDKKDYNPSLKSRLTISKDTSKNQVVLKVTNMDPADTATYYCARSMITNWYFDVWGAGTTVTVSS
VL: DIQMTQSPSTLSASVGDRVTITCKCQLSVGYMHWYQQKPGKAPKLLIYDTSKLASGVPSRFSGSGSGTEFTLTISSLQPDDFATYYCFQGSGYPFTFGGGTKLEIK
Question: Which EC50 of proliferation of Ba/F3-gp130-AIP3^VHHgp130 cells, P^scFvHLFc 0.00056-100 nM (Fig. 6E) [8] does the source give for B3 here?
Answer: The EC50 of proliferation of Ba/F3-gp130-AIP3^VHHgp130 cells, P^scFvHLFc 0.00056-100 nM (Fig. 6E) was 9.1 nM.

Question: What about the EC50 of proliferation of Ba/F3-gp130-AIP1^VHHgp130 cells, P^scFvHLFc 0.00056-100 nM (Fig. 6E) [9] of the same binder?
Answer: The EC50 of proliferation of Ba/F3-gp130-AIP1^VHHgp130 cells, P^scFvHLFc 0.00056-100 nM (Fig. 6E) was 0.4 nM.

Question: What about the EC50 of proliferation of Ba/F3-gp130-AIP1^VHHgp130 cells, P^scFvHLFc 0.00563-5.77 nM (Fig. 6H) [9] of the same binder?
Answer: Its EC50 of proliferation of Ba/F3-gp130-AIP1^VHHgp130 cells, P^scFvHLFc 0.00563-5.77 nM (Fig. 6H) is 0.5 nM.

Question: And the lowest concentration that induced STAT3 phosphorylation in Ba/F3-gp130-AIP1^VHHgp130 cells (0.19 to 6 nM tested, Fig. 6I) [9]?
Answer: Its lowest concentration that induced STAT3 phosphorylation in Ba/F3-gp130-AIP1^VHHgp130 cells (0.19 to 6 nM tested, Fig. 6I) is 0.19 nM.

Question: And the EC50 of proliferation of Ba/F3-gp130-AIP2^VHHgp130 cells, P^scFvHLFc 0.00056-100 nM (Fig. 6E) [10]?
Answer: The EC50 of proliferation of Ba/F3-gp130-AIP2^VHHgp130 cells, P^scFvHLFc 0.00056-100 nM (Fig. 6E) was 0.7 nM.

B4: Palivizumab single-chain variable fragment, light-heavy order, fused to IgG1 Fc (P^scFvLHFc) (Fc fusion)
VH: QVTLRESGPALVKPTQTLTLTCTFSGFSLSTSGMSVGWIRQPPGKALEWLADIWWDDKKDYNPSLKSRLTISKDTSKNQVVLKVTNMDPADTATYYCARSMITNWYFDVWGAGTTVTVSS
VL: DIQMTQSPSTLSASVGDRVTITCKCQLSVGYMHWYQQKPGKAPKLLIYDTSKLASGVPSRFSGSGSGTEFTLTISSLQPDDFATYYCFQGSGYPFTFGGGTKLEIK
Question: Which results are given for B4?
Answer: EC50 of proliferation of Ba/F3-gp130 cells expressing AIP3^VHHgp130, P^scFvLHFc 0.00053-93.5 nM (Fig. 6B) [8]: 6.61 nM; EC50 of proliferation of Ba/F3-gp130-AIP1^VHHgp130 cells, P^scFvLHFc 0.00563-5.77 nM (Fig. 6H) [9]: 0.38 nM; EC50 of proliferation of Ba/F3-gp130 cells expressing AIP1^VHHgp130, P^scFvLHFc 0.00053-93.5 nM (Fig. 6B) [9]: 0.21 nM; lowest concentration that induced STAT3 phosphorylation in Ba/F3-gp130-AIP1^VHHgp130 cells (0.19 to 6 nM tested, Fig. 6I) [9]: 1.5 nM; caspase 3/7 activity in Ba/F3-gp130-AIP3^VHHFas cells, dimeric P^scFvLHFc 0.1-100 nM, percent of the activity with cross-linked 2× P^scFvLHFc [11]: < 50%

B5: anti-idiotypic nanobody for Palivizumab 4 (AIP4^VHH), soluble (VHH)
VHH: DVQLQESGGGLVQAGGSLRLSCVASGRAFSRYDMGWFRQAPGKEREFVAQISWRGGSATSYADTVKGRFTIARDNAKNTVYLQMNSLKPEDTAVYYCNARTPTLSSWGQGTQVTVSS
Question: For B5, which Kd (Palivizumab [2]) is on record?
Answer: Its Kd is 3.14 nM.

B6: anti-idiotypic nanobody for Palivizumab 1 (AIP1^VHH), soluble (VHH)
VHH: DVQLQESGGGLVQAGGSLRLSCVASGLTFRYDMGWFRQAPGKEREFVAQITWRGGSATYYADSVKGRFTIARDIAKNAVYLQMNSLKPEDTAVYYCAAAYGSAGYRPDEYDSWGQGTQVTVSS
Question: B6 was tested. Which IC50 (Palivizumab [1]) did it give?
Answer: Its IC50 is 1.76 nM.

Question: And the Kd (Palivizumab [2])?
Answer: Its Kd is 0.026 nM.

Question: And the koff (Palivizumab [2])?
Answer: Its koff is 5.9e-05 s⁻¹.

Question: And the kon (Palivizumab [2])?
Answer: Its kon is 2.3e+06 M⁻¹ s⁻¹.

Question: What about the Kd [12] of the same binder?
Answer: Its Kd is 0.0098 nM.

Question: What about the Kd [13] of the same binder?
Answer: The Kd was 0.0272 nM.

Question: And the IC50 of soluble AIP1^VHH (0.49-1000 nM) for proliferation of Ba/F3-gp130-AIP1^VHHgp130 cells induced by 2 nM P^scFvLHFc; blocks P^scFvLHFc with AIP1^VHHgp130 [3]?
Answer: Its IC50 of soluble AIP1^VHH (0.49-1000 nM) for proliferation of Ba/F3-gp130-AIP1^VHHgp130 cells induced by 2 nM P^scFvLHFc; blocks P^scFvLHFc with AIP1^VHHgp130 is 2.79 nM.

B7: anti-idiotypic nanobody for Palivizumab 2 (AIP2^VHH), soluble (VHH)
VHH: DVQLQESGGGLVQAGGSLRLSCAASESLFRLNAMGWYRQAPGKQRELVAGITTSGDAVYADSVKGRFTISRDSAKNTVYLQTNNLKPEDTAVYYCNVRPRAGTWENARIGVWGQGTQVTVSS
Question: Which IC50 (Palivizumab [1]) does the source give for B7 here?
Answer: The IC50 was 4.4 nM.

Question: What about the Kd (Palivizumab [2]) of the same binder?
Answer: Its Kd is 2.16 nM.

Question: And the IC50 of soluble AIP2^VHH (0.49-1000 nM) for proliferation of Ba/F3-gp130-AIP1^VHHgp130 cells induced by 2 nM P^scFvLHFc; blocks P^scFvLHFc with AIP1^VHHgp130 [3]?
Answer: Its IC50 of soluble AIP2^VHH (0.49-1000 nM) for proliferation of Ba/F3-gp130-AIP1^VHHgp130 cells induced by 2 nM P^scFvLHFc; blocks P^scFvLHFc with AIP1^VHHgp130 is 83.1 nM.

From article PMC10630626
